Our source for the Kd, koff and kon values is US20180009892A1 (EUREKA THERAPEUTICS, published 2018).

The target of assay [1] is T1, ROR1 extracellular domain Fc fusion:Fc heterodimer, monomer (human).
T1 construct: Heterodimer of one ROR1 ECD-Fc chain and one Fc chain; also called ROR1 monomer; hROR1 monomeric ECD-Fc fusion protein; not shown: Fc part; Fc alone
The assay is described as follows: SPR, immobilised ROR1 monomer, antibody injected, 1:1 model. As for the experimental part: (§1) The binding affinities of ROR1 extracellular domain dimer and monomer for anti-ROR1 antibodies were determined by surface plasmon resonance (SPR). ROR1 extracellular domain Fc-fusion, “dimer,” and ROR1 extracellular domain Fc fusion:Fc heterodimer, “monomer,” are the dimer and monomeric forms of ROR1 used for affinity analysis, respectively. Briefly, ROR1 dimer and monomer were directly immobilized to a CM4 chip using an amine coupling kit and 100 mM ethylenediamine in 100 mM Sodium Borate buffer, pH 8.0 as the blocking reagent. Approximately 100-150 RU of ROR1 dimer and monomer were immobilized on separate flow cells and an un-derivatized flow cell was used as a reference control. […] Dissociation was followed for 180 seconds. The association constant, dissociation constant, and affinity of each anti-ROR1 antibody was calculated using the Biacore T200 Evaluation Software 1:1 binding model.
(§2) Sensorgrams were normalized to 100 RU using the “binding stability point” at the end of the association phase but before the dissociation phase.

Assay [2] has as its target T2, ROR1 extracellular domain Fc-fusion, dimer (human, UniProt Q01973 30-406).
T2 construct: also called ROR1 dimer; hROR1 dimeric ECD-Fc fusion protein; not shown: Fc part
The assay is described as follows: SPR, immobilised ROR1 dimer, antibody injected, 1:1 model; apparent affinity. As for the experimental part:
as §1, §2

Assay [3] deals with T2, ROR1 extracellular domain Fc-fusion, …. The assay is described as follows: SPR, immobilised ROR1 dimer, antibody injected, 1:1 model. As for the experimental part: as §1, §2

T1 sequence (Q01973 30-406, one chain of several): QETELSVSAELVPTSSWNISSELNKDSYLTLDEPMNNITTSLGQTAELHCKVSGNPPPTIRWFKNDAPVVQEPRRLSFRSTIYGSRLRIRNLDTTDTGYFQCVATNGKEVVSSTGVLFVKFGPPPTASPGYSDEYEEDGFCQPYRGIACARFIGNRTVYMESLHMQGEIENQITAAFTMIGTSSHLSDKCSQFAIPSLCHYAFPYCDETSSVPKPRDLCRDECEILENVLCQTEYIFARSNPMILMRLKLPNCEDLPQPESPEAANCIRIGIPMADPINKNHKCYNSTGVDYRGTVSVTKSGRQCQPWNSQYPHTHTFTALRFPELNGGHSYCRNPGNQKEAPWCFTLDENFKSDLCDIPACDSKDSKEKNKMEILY
T2 sequence (Q01973 30-406): as the sequence (Q01973 30-406, one chain of several) above

B1: Antibody 601-112 (antibody, V domains shown)
VH: EVQLVQSGGDLVQPGGSLRLSCAASGFTFSSYSMNWVRQAPGKGLEWVSSISSSSSYIYYADSVKGRFTISRDNAKNSLYLQMNSLRAEDTAVYYCARGLGGWTHDAFDIWGQGTTVTVSS
VL: QSALTQPASVSGSPGQSITISCTGTSSDVGGYNYVSWYQQHPGKAPKLMIYDVSKRPSGVSNRFSGSKSGNTASLTISGLQAEDEADYYCSSYTGRSTVFGGGTKLTVL
In assay [1], B1 came in with a Kd of 4.6 nM, a koff of 0.0012 s⁻¹ and an on-rate (kon) of 270000 M⁻¹ s⁻¹. The Kd in assay [2] was found to be 1 nM. In assay [3], the koff came out at 0.00032 s⁻¹ and the kon was 340000 M⁻¹ s⁻¹.

B2: Antibody 601-119 (antibody, V domains shown)
VH: QVQLVQSGGGLVKPGGSLRLSCAASGFTFGTYSMNWVRQAPGKGLEWVSSISSSSSYIYYADSVKGRFTISRDNAKNSLYLQMNSLRAEDTAVYYCARGLGGWTHDAFDIWGQGTTVTVSS
VL: QSALTQPASVSASPGQSITISCTGTSSDVGGYNYVTWYQQHPGKAPKLMIYDVSKRPSGVLDRFSGSKSGNTASLTISGLQAEDEADYFCSSYTSSSTLVFGGGTKLTVLG
In the case of B2, in assay [1], the Kd turned out to be 407 nM, the koff was found to be 0.095 s⁻¹ and the kon came to 230000 M⁻¹ s⁻¹. Besides, the Kd in assay [2] was found to be 178 nM. In assay [3], this molecule gave a koff of 0.079 s⁻¹ and a kon of 440000 M⁻¹ s⁻¹.

B3: Antibody 601-4 (antibody, V domains shown)
VH: EVQLVQSGPGLVKPSGTLSLTCAVSGGSISSSNWWSWVRQPPGKGLEWIGEIYHSGSTNYNPSLKSRVTISVDKSKNQFSLKLGSVTAADTATYYCARDLWLGEWDLWGQGTLVTVSS
VL: QSVLTQPPSASGAPGQRVTISCSGGISNVGTNGVNWYQHLPGTAPKLLVDAMNQRPSGVPDRFSGSRSGTSGSLAITGLRSEDEADYYCATWDDSLSGVLFGGGTKLTVLG
In the case of B3, the Kd is 0.3 nM in assay [1] and 0.2 nM in assay [2]. For the same molecule, the koff in assay [1] amounted to 0.0016 s⁻¹; in assay [3] it was 0.00076 s⁻¹. Besides, the kon was 4.6e+06 M⁻¹ s⁻¹ in assay [1] and 3.6e+06 M⁻¹ s⁻¹ in assay [3].

B4: Antibody 601-65 (antibody, V domains shown)
VH: QVQLQQSGPGLVKPSQTLSLTCAISGDSVSSNSATWNWIRQSPSRGLEWLGRTYYRSKWYNDYAVSVKSRIIINPDTSKNQFSLQLNSVTPEDTAVYYCARGVRAFDIWGQGTTVTVSS
VL: QSVLTQPPSVSGTPGQRVTIFCSGGSNNIGRSSVYWYRQAAGTAPKLLIYKTDQRPSGVPDRFAASKSGASASLAISGLRSEDEADYHCATWDDSLSAVVFGGGTKLTVL
With B4, the Kd in assay [1] was determined as 6.6 nM; in assay [2], 6.4 nM. The figures for the koff in assay [1] and in assay [3] were 0.011 s⁻¹ and 0.0072 s⁻¹, respectively. The results for the kon in assay [1] and in assay [3] were 1.7e+06 M⁻¹ s⁻¹ and 1.1e+06 M⁻¹ s⁻¹, respectively.

B5: Antibody 601-147 (antibody, V domains shown)
VH: QMQLVQSGAEVKKPGASVKVSCKASGYTFSRYYIHWVRQAPGQGLEWMGLINPGGGSTNYAQKFQGRVTMTRDTSTNTVYLELSSLRSDDTAVYYCARDYGTIDARRFDFWGQGTLVTVSS
VL: QSALTQPPSASGTPGQRVTISCSGSSSNIGSNYVYWYQQLPGTAPKLLIYRNNQRPSGVPDRFSGSKSGTSASLAISGLRSEDEADYYCAAWDDSLSGYVFGTGTKVTVL
As for B5, in assay [1], the Kd was determined as 2.8 nM, the koff is 0.0017 s⁻¹ and the kon is 590000 M⁻¹ s⁻¹. Moreover, the Kd in assay [2] stood at 0.9 nM. In addition, in assay [3], the koff was determined as 0.00063 s⁻¹ and the kon came to 680000 M⁻¹ s⁻¹.

B6: Antibody 601-50 (antibody, V domains shown)
VH: QVQLQQSGAEVKKPGASVKVSCKASGYTFSRYYIHWVRRAPGQGLEWMGLINPGGGSTNYAQKFQGRVTMTRDTSTNTVYLELSSLRSDDTAVYYCARDYGTIDARRFDFWGQGTLVTVSS
VL: QSALTQPPSASGTPGQRVTISCPGSSSNIGSNYVYWYQQLPGTAPKLLIYRNNQRPSGVPDRFSGSKSGTSATLGITGLQTGDEADYYCGTWDSSLSAYVFGTGTKVTVL
With B6, the values for the Kd in assay [1] and in assay [2] were 1.5 nM and 1.1 nM, respectively. Also, the koff in assay [1] was 0.0016 s⁻¹; in assay [3], 0.0011 s⁻¹. Besides, the kon worked out at 1.1e+06 M⁻¹ s⁻¹ in assay [1] and 940000 M⁻¹ s⁻¹ in assay [3].

B7: Antibody 601-130 (antibody, V domains shown)
VH: EVQLVETGGGLVKPGGSLRLSCEASGFSLSSYSMNWVRQAPGKGLEWVSSISSSSTHIYYADSLKGRFTISRDNAKNSLFLQMDNLRAEDTAVYYCARATIGFDYWGQGTLVTVSS
VL: QSVLTQPPSVSGAPGQRVTISCTGSSSNIGAGYDVHWYQQLPGTAPKLLIYGNSNRPSGVPDRFSGSKSGTSASLAITGLQAEDEADYYCQSYDSSLSGYVFGTGTKLTVL
Regarding B7, in assay [1], the Kd was 4.1 nM, the koff was determined as 0.0018 s⁻¹ and the kon was 450000 M⁻¹ s⁻¹. The Kd in assay [2] was determined as 2.2 nM. For the same molecule, in assay [3], the koff was determined as 0.0012 s⁻¹ and the kon turned out to be 520000 M⁻¹ s⁻¹.

B8: Antibody 601-37 (antibody, V domains shown)
VH: EVQLVQSGAEVKKPGASVKVSCKASGYTFNNYGFSWVRQAPGQGLEWMGWISVYNGNTNYAQKLQGRVTMTTDTSTSTAYMELRSLRSDDTAVYYCARDYYSDSSGYWDDAFDIWGQGTMVTVSS
VL: AIRMTQSPSSLSASVGDRVTITCQASQDISNYLNWYQQKPGKAPKLLIYAASSLQSGVPSRFSGSGSGTDFTLTISSLQPEDFATYYCQQSYSTPFTFGPGTKVDIK
As to B8, the Kd in assay [1] was found to be 3 nM; in assay [2], 1.7 nM. In addition, the results for the koff in assay [1] and in assay [3] were 0.0027 s⁻¹ and 0.0018 s⁻¹, respectively. For the same molecule, the kon stood at 920000 M⁻¹ s⁻¹ in assay [1] and 1e+06 M⁻¹ s⁻¹ in assay [3].

B9: Antibody 601-141 (antibody, V domains shown)
VH: QVQLQQSGAEVKKPGASVKVSCKASGHTFSNYGISWVRQAPGQGLEWMGWISTYNGNTNYAQKLQGRVTMTTDTSTSTAYMELRSLRSDDTAVYYCARDYYSDSSGYWDDAFDIWGQGTTVTVSS
VL: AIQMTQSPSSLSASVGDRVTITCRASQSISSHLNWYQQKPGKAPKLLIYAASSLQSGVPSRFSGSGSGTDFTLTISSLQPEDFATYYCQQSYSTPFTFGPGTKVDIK
Regarding B9, the Kd turned out to be 20.6 nM in assay [1] and 11.9 nM in assay [2]. In addition, the koff was determined as 0.026 s⁻¹ in assay [1] and 0.022 s⁻¹ in assay [3]. Besides, the kon was 1.2e+06 M⁻¹ s⁻¹ in assay [1] and 1.8e+06 M⁻¹ s⁻¹ in assay [3].

B10: Antibody 601-9 (antibody, V domains shown)
VH: QLQLQESGPGVVKPSGTLSLTCTVSGGSISRSDGYWGWVRQPPGKGLEWIGSIYDTGTTYYSPSLKSRLIISVDTSKNQFSLTLNSVTAADTAVYYCASMGGLRSSSSDAFHTWGPGTMVTVSS
VL: QSVLTQPPSVSVAPGETARITCGGTNIGSESVHWYQQRPGQAPVLVVYDDTDRPSGIPERFSGSNSGNTATLTISRVEAGDGADYYCQVWDSVSDRYVFGTGTKVTVL
Take B10: in assay [1], the Kd worked out at 27.6 nM, the koff came to 0.017 s⁻¹ and the kon was found to be 630000 M⁻¹ s⁻¹. Besides, the Kd in assay [2] came out at 15.3 nM. In assay [3], this molecule came in with a koff of 0.021 s⁻¹ and a kon of 1.4e+06 M⁻¹ s⁻¹.

B11: Antibody 601-87 (antibody, V domains shown)
VH: QVQLQESGPGLVKSSETLSLTCTVSGGSMNNYYWSWIRQPAGKGLEWMGRIYSSGSTNYNPALKSRVTMSVDTSKNQFSLNLSSVTAADTAIYYCARASWSGTYWALFDYWGQGTLVTVSS
VL: ETTLTQSPAFMSATPGDKVNISCKASQDIDDDLNWYQQKPGEAPILIIQEATTLVPGIPPRFSGSGFGTDFTLTINSMQSEDVAYYFCLQHDNFPPTFGQGTKVEIK
In assay [1], B11 registered a Kd of 2.2 nM, a koff of 0.0013 s⁻¹ and a kon of 600000 M⁻¹ s⁻¹. For the same molecule, in assay [2], the Kd stood at 0.8 nM. In assay [3], the koff was found to be 0.00058 s⁻¹ and the kon was 760000 M⁻¹ s⁻¹.

B12: Antibody 601-149 (antibody, V domains shown)
VH: EAQLVESGGGLVKPGGSLRLSCAASGFTFSDYYMGWVRQAPGKGLKWLSYISDRAHTIYDTDSVKGRFTISRDDAKSSLYLRMNNLRVEDTAVYYCARAVGAGEGFDYWGQGTLVTVSS
VL: DIQLTQSPSSLSASVGDRVTITCQASQDVRNYLNWYQQKPGKAPNLLIYDATNLESGVPSRFSGSGSGTDFTFTISSLQPEDFATYYCQQYDNLPLSFGGGTKVEIK
With B12, in assay [1], the Kd turned out to be 0.4 nM, the koff is 0.00069 s⁻¹ and the kon came to 1.6e+06 M⁻¹ s⁻¹. Also, the Kd in assay [2] turned out to be 0.1 nM. In assay [3], this molecule yielded a koff of 0.00023 s⁻¹ and a kon of 1.9e+06 M⁻¹ s⁻¹.

B13: Antibody 601-66 (antibody, V domains shown)
VH: QVQLVQSGAEVKEPGASVKVSCKASGYTFRNSGITWVRQAPGQGLEWMGWINPNSGGAMYVDNFQGRATMTRDTSINTAYMELRSLSSDDTAVYYCARGMADLIDVFDIWGQGTLVTVSS
VL: TQPALTQPASVSGSPGQSITISCTGTSSDFGDYDYVSWYQQHPGKAPKLMIYDVSDRPSGVSNRFSGSKSGNTASLTISGLQAEDEADYFCSSFTTSSTLVFGGGTKLTVL
In assay [1], B13 registered a Kd of 2.4 nM, a koff of 0.0059 s⁻¹ and a kon of 2.5e+06 M⁻¹ s⁻¹. For the same molecule, in assay [2], the Kd was found to be 1.7 nM. In assay [3], the koff is 0.0051 s⁻¹ and the kon was determined as 3.1e+06 M⁻¹ s⁻¹.

B14: Antibody 601-70 (antibody, V domains shown)
VH: EVQLVQSGAELKKPGSSVRVSCKTSGGSFKTHGISWVRQAPGQGLEWMGWINPNSGGALYVDNFQGRATMTRDTSINTAYMELRSLSSDDTAVYYCARGMADLIDVFDIWGQGTMVTVSS
VL: TQPALTQPASVSGSPGQSITISCTGTSSDFGDYDYVSWYQQHPGKAPKLMIYDVSDRPSGVSNRFSGSKSGNTASLTISGLQAEDEADYFCSSFTTSSTLVFGGGTKLTVL
In assay [1], B14 had a Kd of 5.4 nM, a koff of 0.019 s⁻¹ and an association rate constant (kon) of 3.6e+06 M⁻¹ s⁻¹. The Kd in assay [2] stood at 3.5 nM. In assay [3], this molecule showed a koff of 0.018 s⁻¹ and a kon of 5.1e+06 M⁻¹ s⁻¹.
